Results as given in US20250179126A1, “A NOVEL PEPTIDE FROM A PHOTOSYNTHETIC BACERIUM DIRECTLY TARGETS MITOCHONDRIA TO TRIGGER APOPTOSIS IN ADVANCED PROSTATE CANCER CELLS” (priority 2022, published 2025).

B1: aldolase A: purified human aldolase A (purity >95%), glycolytic enzyme (protein, UniProt P04075 2-364, looked up)
Fructose-bisphosphate …: PYQYPALTPEQKKELSDIAHRIVAPGKGILAADESTGSIAKRLQSIGTENTEENRRFYRQLLLTADDRVNPCIGGVILFHETLYQKADDGRPFPQVIKSKGGVVGIKVDKGVVPLAGTNGETTTQGLDGLSERCAQYKKDGADFAKWRCVLKIGEHTPSALAIMENANVLARYASICQQNGIVPIVEPEILPDGDHDLKRCQYVTEKVLAAVYKALSDHHIYLEGTLLKPNMVTPGHACTQKFSHEEIAMATVTALRRTVPPAVTGITFLSGGQSEEEASINLNAINKCPLLKPWALTFSYGRALQASALKAWGGKKENLKAAQEEYVKRALANSLACQGKYTPSGQAGAAASESLFVSNHAY

Key:
[1] = system: spontaneously developed mammary tumors; assay: NIR-imaging of transgenic mice; format: in vivo; conditions: 5 mg/kg once, imaged after 24 h
Protocol: FIG. 29A-29C: Effect of azurin from P. aeruginosa in a transgenic animal model. 29A. Near-infrared red (NIR) dye-conjugated azurin or PBS was injected i.v. into transgenic mice that spontaneously develop mammary tumors. Twenty-four hours after azurin injection, mice were imaged with a photodynamic eye (PDE) system (left: photographic image, right: NIR fluorescence image at 800 nm). 29B. At the end of the study, the tumors were resected.
NIR-imaging of transgenic mice: Near infrared red fluorescent dye (IR800, Licor, NE) was conjugated to azurin according to the manufacturer instructions. Transgenic mice with spontaneously developed mammary tumours received NIR dye conjugated azurin at 5 mg/kg once i.p. After 24 h, specific fluorescence signal at 800 nm was recorded by the PDE-neo® NIR camera system (Hamamatsu photonics, Mitaka-USA).

P. aeruginosa = assay: Azurin secretion by P. aeruginosa treated with purified aldolase A (western blot); format: cell-based, Pseudomonas aeruginosa; conditions: 30 min
Protocol: FIG. 18A-18G: Induction of aldolase A secretion by host cells in the presence of P. aeruginosa. 18A. Human host cells (cancer and normal) and P. aeruginosa were co-incubated for 30 min at a concentration of 500,000 human cells/ml with P. aeruginosa at OD=0.3. Aldolase secretion varied between the co-cultures with cancer and normal cells. […] 18B Correlation between the aldolase A and azurin levels in co-cultures of P. aeruginosa with cancer or normal cells. 18C Cancer cells (Mel-2 and MDA-MB-231) and P. aeruginosa (WT and azunull mutant) were co-incubated for 30 min at a concentration of 500,000 human cells/ml with P. aeruginosa at OD=0.3. Secretion of aldolase into the culture supernatant was assessed by western blot analysis. 18D P. aeruginosa (OD=0.3) was treated with purified aldolase A protein at concentrations of 1 nM, 10 nM, 100 nM, and 1 μM for 30 min. […]
Western blotting: After running the NuPAGE, proteins were transferred to PVDF membranes (BioRad Laboratories Inc, Hercules, CA) which were blocked in SuperBlock (T20 TBS buffer, Thermo Fisher) for one hour. […] The signal was detected using enhanced chemiluminescence (ECL, Thermo Fisher Scientific). Quantitative analysis of the bands was performed with a computer-assisted imaging densitometer (UN-SCAN-IT gel version 5.1).

Mel-2 cells = assay: Host cell adhesion assay, P. aeruginosa on Mel-2 cells; format: cell-based, human
Protocol: (§1) FIG. 24A-24E: 24A—Adherence assays were performed essentially as previously described38. Monolayer MDA-MB-231 (red) and Mel-2 (blue) cells were compared to siRNA-induced silencing of aldolase gene in the cancer cell lines (+) when they were co-incubated with P. aeruginosa for 2 h. To assess total cell association, monolayers were washed to remove unbound P. aeruginosa and were then disrupted and homogenized in 0.10% saponin/PBS. P. aeruginosa cells were counted by serial dilution of the homogenized suspensions and subsequent determination of colony-forming units (CFU) by plating on LB agar. Control (−) expressed as 100%. Mean±SE, *P<0.05. 24B—Monolayer MDA-MB-231 (red) and Mel-2 (blue) cells were co-incubated with P. aeruginosa in the presence or absence of exogenous aldolase A for 2 h. Similar to above, total P. aeruginosa association on cancer cells were counted by plating on LB agar. Control (0 μM aldolase A) expressed as 100%. […] Total P. aeruginosa association on cancer cells were counted by plating on LB agar. *P<0.05, NS: not significant. […] The mean+SE values were calculated.
(§2) Host cell adhesion assay: The assays were performed essentially as described before38. […] Control values of CFU/ml expressed as 100%. siRNA-induced silencing of aldolase and MUC1 genes in MDA-MB-231 and Mel2 cells as conducted as described previously80,81. […]

MDA-MB-231 cells = assay: Host cell adhesion assay, P. aeruginosa on MDA-MB-231 cells; format: cell-based, human
Protocol: as §1, §2

| Molecule | tumor localization (NIR fluorescence at 800 nm) [1] | azurin secretion by P. aeruginosa (western blot) (P. aeruginosa; P. aeruginosa OD=0.3, 1 μM aldolase A) | azurin secretion by P. aeruginosa (western blot) (P. aeruginosa; P. aeruginosa OD=0.3, purified aldolase A 1 nM-1 μM) | aldolase A concentration at which increase of adherence is saturable (Mel-2 cells; Mel-2, 2 h) [µM] | adherence of P. aeruginosa to cancer cells (Mel-2 cells; Mel-2, exogenous aldolase A, 2 h) | aldolase A concentration at which increase of adherence is saturable (MDA-MB-231 cells; MDA-MB-231, 2 h) [µM] | adherence of P. aeruginosa to cancer cells (MDA-MB-231 cells; MDA-MB-231, exogenous aldolase A, 2 h) |
| --- | --- | --- | --- | --- | --- | --- | --- |
| NIR dye-conjugated azurin: azurin conjugated to near infrared red fluorescent dye IR800 | preferentially localized to spontaneously developed mammary tumors | – | – | – | – | – | – |
| B1 | – | stimulated azurin secretion | induced azurin secretion | > 1 | significantly increased adherence to cancer cells | > 1 | significantly increased adherence to cancer cells |
